B1: Dual-affinity Re-targeting Antibody (DART)-monomeric Fc format targeting B7H3 and CD3 (bispecific antibody)
chain 1: DIQLTQSPSFLSASVGDRVTITCKASQNVDTNVAWYQQKPGKAPKALIYSASYRYSGVPSRFSGSGSGTDFTLTISSLQPEDFATYYCQQYNNYPFTFGQGTKLEIKGGGSGGGGEVQLVESGGGLVQPGGSLRLSCAASGFTFSTYAMNWVRQAPGKGLEWVGRIRSKYNNYATYYADSVKDRFTISRDDSKNSLYLQMNSLKTEDTAVYYCVRHGNFGNSYVSWFAYWGQGTLVTVSSGGCGGGEVAALEKEVAALEKEVAALEKEVAALEKGGGDKTHTCPPCPAPEAAGGPSVFLFPPKPKDTLMISRTPEVTCVVVDVSHEDPEVKFNWYVDGVEVHNAKTKPREEQYNSTYRVVSVLTVLHQDWLNGKEYKCKVSNKALPAPIEKTISKAKGQPREPQVYTLPPSREEMTKNQVSLWCLVKGFYPSDIAVEWESNGQPENNYKTTPPVLDSDGSFFLYSKLTVDKSRWQQGNVFSCSVMHEALHNHYTQKSLSLSPGK
chain 2: QAVVTQEPSLTVSPGGTVTLTCRSSTGAVTTSNYANWVQQKPGQAPRGLIGGTNKRAPWTPARFSGSLLGGKAALTITGAQAEDEADYYCALWYSNLWVFGGGTKLTVLGGGGSGGGGEVQLVESGGGLVQPGGSLRLSCAASGFTFSSFGMHWVRQAPGKGLEWVAYISSDSSAIYYADTVKGRFTISRDNAKNSLYLQMNSLRDEDTAVYYCGRGRENIYYGSRLDYWGQGTTVTVSSGGCGGGKVAALKEKVAALKEKVAALKEKVAALKE
chain 3: not shown
notes: also called DART-Fc B7H3×CD3; DART-Fc
B2: cx3309 (CD20-targeting constrained CD3 engaging construct, GA101 scFvs) (bispecific antibody)
chain 1: not shown
chain 2: DKTHTCPPCPAPELLGGPSVFLFPPKPKDTLMISRTPEVTCVVVDVSHEDPEVKFNWYVDGVEVHNAKTKPREEQYNSTYRVVSVLTVLHQDWLNGKEYKCKVSNKALPAPIEKTISKAKGQPREPQVYTLPPCRDELTKNQVSLWCLVKGFYPSDIAVEWESNGQPENNYKTTPPVLDSDGSFFLYSKLTVDKSRWQQGNVFSCSVMHEALHNHYTQKSLSLSPTGGSGGGGIEPDIGGSGGSEVQLVESGGGLVQPGGSLRLSCAASGFTFNTYAMNWVRQAPGKCLEWVARIRSKYNNYATYYADSVKGRFTISRDDAKNTLYLQMSSLRAEDTAVYYCVRHGNFGNSYVSWFAYWGQGTLVTVKP
scFv: QVQLVQSGAEVKKPGSSVKVSCKASGYAFSYSWINWVRQAPGQGLEWMGRIFPGDGDTDYNGKFKGRVTITADKSTSTAYMELSSLRSEDTAVYYCARNVFDGYWLVYWGQGTLVTVSGSGGGGSGGGGTGGGGSDIVMTQTPLSLPVTPGEPASISCRSSKSLLHSNGITYLYWYLQKPGQSPQLLIYQMSNLVSGVPDRFSGSGSGTDFTLKISRVEAEDVGVYYCAQNLELPYTFGGGTKVEIK
notes: also called cx3490
B3: cx3313 (B7H3-targeting constrained CD3 engager, B7H3 Fab) (bispecific antibody)
chain 1: not shown
chain 2: B2 chain 2
heavy: EVQLVESGGGLVQPGGSLRLSCAASGFTFSSFGMHWVRQAPGKGLEWVAYISSDSSAIYYADTVKGRFTISRDNAKNSLYLQMNSLRDEDTAVYYCGRGRENIYYGSRLDYWGQGTTVTVSSASTKGPSVFPLAPSSKSTSGGTAALGCLVKDYFPEPVTVSWNSGALTSGVHTFPAVLQSSGLYSLSSVVTVPSSSLGTQTYICNVNHKPSNTKVDKKVEPKSC
light: DIQLTQSPSFLSASVGDRVTITCKASQNVDTNVAWYQQKPGKAPKALIYSASYRYSGVPSRFSGSGSGTDFTLTISSLQPEDFATYYCQQYNNYPFTFGQGTKLEIKRTVAAPSVFIFPPSDEQLKSGTASVVCLLNNFYPREAKVQWKVDNALQSGNSQESVTEQDSKDSTYSLSSTLTLSKADYEKHKVYACEVTHQGLSSPVTKSFNRGEC
notes: also called cx3313 FAB
B4: cx3314 (B7H3-targeting constrained CD3 engager, B7H3 scFv) (bispecific antibody)
chain 1: not shown
chain 2: B2 chain 2
scFv: EVQLVESGGGLVQPGGSLRLSCAASGFTFSSFGMHWVRQAPGKGLEWVAYISSDSSAIYYADTVKGRFTISRDNAKNSLYLQMNSLRDEDTAVYYCGRGRENIYYGSRLDYWGQGTTVTVSSSGGGGSGGGGSGGGGSDIQLTQSPSFLSASVGDRVTITCKASQNVDTNVAWYQQKPGKAPKALIYSASYRYSGVPSRFSGSGSGTDFTLTISSLQPEDFATYYCQQYNNYPFTFGQGTKLEIK
notes: also called cx3314 scFv

Columns and labels:
B7H3 on A375 cells = molecular target: T1, B7H3 on A375 cells (UniProt Q5ZPR3 29-534, limits assumed); assay: flow cytometry on A375 cells
T1 construct: whole, on cells; also called BH73
T1 sequence (looked up): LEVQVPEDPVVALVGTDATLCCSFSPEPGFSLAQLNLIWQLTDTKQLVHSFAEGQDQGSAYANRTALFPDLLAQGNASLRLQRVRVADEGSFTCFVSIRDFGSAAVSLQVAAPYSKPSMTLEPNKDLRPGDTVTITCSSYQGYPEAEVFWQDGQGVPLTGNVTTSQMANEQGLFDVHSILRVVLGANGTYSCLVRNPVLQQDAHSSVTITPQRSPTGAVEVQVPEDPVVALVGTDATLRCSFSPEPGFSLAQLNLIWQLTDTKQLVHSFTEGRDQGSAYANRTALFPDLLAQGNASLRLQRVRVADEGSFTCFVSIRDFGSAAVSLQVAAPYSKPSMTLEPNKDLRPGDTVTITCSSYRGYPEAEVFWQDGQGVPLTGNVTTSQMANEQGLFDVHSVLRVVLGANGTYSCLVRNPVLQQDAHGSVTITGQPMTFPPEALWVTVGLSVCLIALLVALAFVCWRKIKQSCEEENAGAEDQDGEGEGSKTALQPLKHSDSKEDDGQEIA

[1] = molecular target: T2, CD3 on the surface of primary human T cells (human, UniProt P07766 23-207); assay: flow cytometry on primary human T cells
T2 construct: whole, on cells; CD3 is a multi-chain complex; also called CD3ε
T2 sequence (P07766 23-207): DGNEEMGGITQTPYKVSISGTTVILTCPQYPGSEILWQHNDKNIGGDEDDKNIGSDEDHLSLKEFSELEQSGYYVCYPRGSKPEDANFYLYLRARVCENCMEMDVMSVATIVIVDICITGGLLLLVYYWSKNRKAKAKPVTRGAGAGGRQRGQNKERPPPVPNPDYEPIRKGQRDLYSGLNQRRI

[2] = molecular target: T2, CD3 on the surface of primary human T …; assay: flow cytometry on primary human T cells (FIGS. 14C and 14D)

Binder	binding result (B7H3 on A375 cells)	binding result [1]	binding result [2]
B1	binds	binds	
B2		no binding (tested: 100 nM)	
B3			no binding
B4			no binding
